Laboratory results taken from the Immune Epitope Database (IEDB).

Legend:
HLA-A*11:01 [1] = assay: IEDB peptide-MHC binding, cellular MHC/competitive/fluorescence; ≥ and ≤ were set here for values at or beyond the usual limits of such assays
HLA-A*33:01 [2] = assay: as above; details: source organism: Vaccinia virus WR
HLA-A*02:01 [3] = assay: IEDB peptide-MHC binding, purified MHC/competitive/radioactivity; ≥ and ≤ were set here for values at or beyond the usual limits of such assays; details: source organism: Vaccinia virus WR
HLA-A*03:01 [4] = assay: as above; details: source organism: Vaccinia virus WR
HLA-A*31:01 [5] = assay: as above
HLA-A*68:01 [6] = assay: as above
HLA-A*68:01 [7] = assay: IEDB peptide-MHC binding, cellular MHC/competitive/fluorescence; ≥ and ≤ were set here for values at or beyond the usual limits of such assays
HLA-A*11:01 [8] = assay: IEDB peptide-MHC binding, purified MHC/competitive/radioactivity; ≥ and ≤ were set here for values at or beyond the usual limits of such assays; details: source organism: Mammarenavirus lassaense
HLA-A*33:01 [9] = assay: as above
HLA-B*07:02 = assay: IEDB peptide-MHC binding, cellular MHC/competitive/fluorescence; ≥ and ≤ were set here for values at or beyond the usual limits of such assays
HLA-B*51:01 = assay: as above
HLA-B*35:01 = assay: IEDB peptide-MHC binding, purified MHC/competitive/radioactivity; ≥ and ≤ were set here for values at or beyond the usual limits of such assays
HLA-B*53:01 = assay: as above
HLA-B*54:01 = assay: as above
HLA-A*01:01 [10] = assay: IEDB peptide-MHC binding, cellular MHC/competitive/fluorescence; ≥ and ≤ were set here for values at or beyond the usual limits of such assays; details: source organism: Vaccinia virus WR
HLA-A*02:01 [11] = assay: as above; details: source organism: Vaccinia virus WR
HLA-A*23:01 [12] = assay: as above; details: source organism: Vaccinia virus WR
HLA-A*24:02 = assay: as above; details: source organism: Vaccinia virus WR
HLA-A*29:02 [13] = assay: as above; details: source organism: Vaccinia virus WR
HLA-A*68:02 [14] = assay: as above; details: source organism: Vaccinia virus WR
HLA-A*02:02 = assay: IEDB peptide-MHC binding, purified MHC/competitive/radioactivity; ≥ and ≤ were set here for values at or beyond the usual limits of such assays; details: source organism: Vaccinia virus WR
HLA-A*02:03 = assay: as above; details: source organism: Vaccinia virus WR
HLA-A*02:06 = assay: as above; details: source organism: Vaccinia virus WR
HLA-A*26:01 = assay: as above; details: source organism: Vaccinia virus WR
HLA-A*30:02 = assay: as above; details: source organism: Vaccinia virus WR
HLA-B*18:01 = assay: IEDB peptide-MHC binding, cellular MHC/competitive/fluorescence; ≥ and ≤ were set here for values at or beyond the usual limits of such assays; details: source organism: Mammarenavirus guanaritoense
HLA-B*44:02 = assay: as above; details: source organism: Mammarenavirus guanaritoense
HLA-B*44:03 = assay: as above; details: source organism: Mammarenavirus guanaritoense
HLA-B*45:01 = assay: as above; details: source organism: Mammarenavirus guanaritoense
HLA-B*40:01 = assay: IEDB peptide-MHC binding, purified MHC/competitive/radioactivity; ≥ and ≤ were set here for values at or beyond the usual limits of such assays; details: source organism: Mammarenavirus guanaritoense
HLA-B*40:02 = assay: as above; details: source organism: Mammarenavirus guanaritoense
HLA-A*03:01 [15] = assay: IEDB peptide-MHC binding, cellular MHC/competitive/fluorescence; ≥ and ≤ were set here for values at or beyond the usual limits of such assays; details: source organism: Mammarenavirus choriomeningitidis
HLA-A*31:01 [16] = assay: as above; details: source organism: Mammarenavirus choriomeningitidis
HLA-B*27:05 = assay: IEDB peptide-MHC binding, purified MHC/competitive/radioactivity; ≥ and ≤ were set here for values at or beyond the usual limits of such assays; details: source organism: Mammarenavirus choriomeningitidis
HLA-A*01:01 [17] = assay: as above; details: source organism: Vaccinia virus WR
HLA-A*23:01 [18] = assay: as above; details: source organism: Vaccinia virus WR
HLA-A*29:02 [19] = assay: as above; details: source organism: Vaccinia virus WR
HLA-A*68:02 [20] = assay: as above; details: source organism: Vaccinia virus WR
[21] = source organism: Vaccinia virus WR
[22] = source organism: Mammarenavirus lassaense
[23] = source organism: Mammarenavirus machupoense
[24] = source organism: Mammarenavirus choriomeningitidis
[25] = source organism: Mammarenavirus guanaritoense

In the case of LLTACTIFYI, the IC50 (HLA-A*11:01 [1]; [21]) is reported as 18.8 µM, the IC50 (HLA-A*33:01 [2]) is reported as 7.39 µM and the IC50 (HLA-A*02:01 [3]) is reported as 5.7 nM. For the same sequence, the IC50 (HLA-A*03:01 [4]) was 829 nM, the IC50 (HLA-A*31:01 [5]; [21]) was 627 nM and the IC50 (HLA-A*68:01 [6]; [21]) was 4370 nM.
For ALMSIISTFH, the IC50 (HLA-A*68:01 [7]; [22]) was 23.8 µM, the IC50 (HLA-A*11:01 [8]) was 618 nM and the IC50 (HLA-A*31:01 [5]; [22]) was 3680 nM. For the same sequence, the IC50 (HLA-A*33:01 [9]; [22]) was 3610 nM.
In the case of MLNNSFYYM, the IC50 (HLA-B*07:02; [23]) is reported as 29.7 µM, the IC50 (HLA-B*51:01; [23]) is reported as 6.95 µM and the IC50 (HLA-B*35:01; [23]) is reported as 501 nM. For the same sequence, the IC50 (HLA-B*53:01; [23]) was 851 nM and the IC50 (HLA-B*54:01; [23]) was 4960 nM.
NQGNILMDSI showed an IC50 (HLA-A*01:01 [10]) of 24 µM, an IC50 (HLA-A*02:01 [11]) of 9.85 µM and an IC50 (HLA-A*23:01 [12]) of no less than 70 µM. It also gave an IC50 (HLA-A*24:02) of 67.2 µM, an IC50 (HLA-A*29:02 [13]) of 7.49 µM and an IC50 (HLA-A*68:02 [14]) of 27.8 µM. The IC50 (HLA-A*02:02) was 3940 nM, the IC50 (HLA-A*02:03) was 4040 nM and the IC50 (HLA-A*02:06) was 3090 nM. The IC50 (HLA-A*26:01) was 2780 nM and the IC50 (HLA-A*30:02) was 3950 nM.
In the case of ADKNLIKCS, the IC50 (HLA-B*18:01) is reported as no less than 70 µM, the IC50 (HLA-B*44:02) is reported as no less than 70 µM and the IC50 (HLA-B*44:03) is reported as no less than 70 µM. The IC50 (HLA-B*45:01) was no less than 70 µM, the IC50 (HLA-B*40:01) was 316 nM and the IC50 (HLA-B*40:02) was 102 nM.
TSAYLISIFL gave an IC50 (HLA-A*03:01 [15]) of 9.21 µM, an IC50 (HLA-A*11:01 [1]; [24]) of no less than 70 µM and an IC50 (HLA-A*31:01 [16]) of 3.1 µM. For the same sequence, the IC50 (HLA-A*33:01 [9]; [24]) was 2180 nM and the IC50 (HLA-A*68:01 [6]; [24]) was 1150 nM.
TTSLFLHLV showed an IC50 (HLA-A*11:01 [1]; [25]) of 15.4 µM, an IC50 (HLA-A*68:01 [7]; [25]) of 11.1 µM and an IC50 (HLA-A*31:01 [5]; [25]) of 726 nM. The IC50 (HLA-A*33:01 [9]; [25]) was 2270 nM.
Sequence MCISLSTAI has an IC50 (HLA-B*07:02; [22]) of 24 µM, an IC50 (HLA-B*51:01; [22]) of 6.76 µM and an IC50 (HLA-B*35:01; [22]) of 211 nM. For the same sequence, the IC50 (HLA-B*53:01; [22]) was 1430 nM and the IC50 (HLA-B*54:01; [22]) was 192 nM.
IIVLIIITSI showed an IC50 (HLA-B*27:05) of 1880 nM.
Sequence SQIFNIISYI has an IC50 (HLA-A*24:02) of 9.51 µM, an IC50 (HLA-A*01:01 [17]) of 801 nM and an IC50 (HLA-A*02:01 [3]) of 111 nM. The IC50 (HLA-A*02:02) was 62 nM, the IC50 (HLA-A*02:03) was 181 nM and the IC50 (HLA-A*02:06) was 23 nM. For the same sequence, the IC50 (HLA-A*23:01 [18]) was 2380 nM, the IC50 (HLA-A*26:01) was 397 nM and the IC50 (HLA-A*29:02 [19]) was 1150 nM. It also gave an IC50 (HLA-A*30:02) of 671 nM and an IC50 (HLA-A*68:02 [20]) of 48 nM.
